The values below come from patent US20250042976A1 (ROCHE DIAGNOSTICS OPERATIONS, published 2025).

Among the targets are RBD Omikron (SARS-CoV-2, Omicron variant); RBD-L452Q F490S (SARS-CoV-2, UniProt P0DTC2); RBD-E484K (SARS-CoV-2, UniProt P0DTC2); RBD-E406W (SARS-CoV-2, UniProt P0DTC2).

B1: Antibody 1F12 (antibody, V domains shown)
VH: QSLEESGGDLVKPGASLTLTCTASGFSFSNNYVMCWVRQAPGKGLEWIGCINTGSGSTYYATWAKGRFTISKISSTTVTLQMTSLTAADTATYFCARSTTYYNYIGGNWIYVMDGFNLWGPGTLVPVSS
VL: AQVLTQTPSSVSEPVGGTVTINCQASENIYSSLAWYQQKPGQPPKLLIYDASDLASGVPSRFSGSGSGTEYTLTISGVECDDAATYYCQQGYTVDNIDNTFGGGTEVVVK
For B1, the Kd with RBD Omikron came out at 280 pM; in the assay with RBD-L452Q F490S it was 330 pM; in the assay with RBD-E484K it was 310 pM; with RBD-E406W, 750 pM. The koff amounted to 0.0012 s⁻¹ with RBD Omikron, 0.0019 s⁻¹ with RBD-L452Q F490S, 0.00081 s⁻¹ with RBD-E484K and 0.0016 s⁻¹ in the assay with RBD-E406W. Besides, the kon in the assay with RBD Omikron came to 2e+06 M⁻¹ s⁻¹; with RBD-L452Q F490S, 5.8e+06 M⁻¹ s⁻¹; with RBD-E484K, 2.6e+06 M⁻¹ s⁻¹; in the assay with RBD-E406W, 2.1e+06 M⁻¹ s⁻¹.

The term Kd denotes the constant that tells how readily two partners part at equilibrium. Read a high Kd as lower affinity. Broadly, the koff is a measure of how fast the partners let go of each other. Lower therefore signals slow dissociation. Broadly, the kon is the second-order rate constant of association. Read a low kon as slower complex formation.
